According to patent publication US20160375155A1 (COLLAGEN MEDICAL, published 2016):
Bridge positions count the residues as written; N and C are the ends. Square brackets hold non-standard residues; d marks the D form. Ends that are not written are not given here. GdDOTAGA = Gd(III)-DOTAGA chelate, amide-linked; Bip = N[C@@H](Cc1ccc(-c2ccccc2)cc1)C(=O)O

How the values were obtained:
Experiment in all cases: dried collagen film in microtiter plate; unbound compound by ICP-MS (Gd); fit to 1 binding site
[1] = target: T1, Canine collagen (Native canine Collagen Type I and III protein, YO protein AB, cat#739) (canine, UniProt Q9XSJ7 158-1214; O46392 80-1119)
T1 construct: The bought preparation is a mixture of native canine collagen types I and III, not one defined trimer; It was gelled and dried as a film in microtiter wells; also called dog collagen
Procedure: (§1) Ice-cold 1×PBS pH 10.8 is added to the collagen solution for a final collagen concentration of 10 μM, pH 7.4. Collagen solutions are gelled and dried down in the wells of a 96 well microtiter plate (Corning Polystyrene Flat Bottom, cat#3641). 70 μl of 10 μM collagen is aliquoted into each well in every other lane in the plate (48 wells) and the plate is incubated at 37° C. for 18 hours to form a gel and evaporate to dryness. Ungelled collagen is removed by washing the collagen films with 200 μl 1×PBS pH 7.4 (four times, 15 min per wash). The thin collagen fibril film remains, coating the bottom of each well. After washing by PBS the plate is again dried at 37° C. for 2 hours and is stored at −20° C. The final well content of gelled collagen is measured by determination of hydroxyproline and is around 180 μg/ml.
(§2) a serial dilution of 0.2 μM-30 μM of the peptide chelate is prepared in PBS, pH 7.4 (˜300 μL of solution for each concentration). 90 μl of each concentration is also reserved in a HPLC glass vial as a sample to measure the total concentration. 140 μL of each dilution of peptide chelate is added to wells containing and non-containing collagen (control for nonspecific plastic binging). The plate is then incubated on a shaker table (300 rpm) for 2 hours at room temperature to allow the compound to bind. After 2 hours the supernatant from each well (with or without collagen) is transferred to an HPLC glass vial. The concentration of free, unbound compound in the sample supernatants and the concentration of compound in the reserved (total) sample are determined by ICP-MS (Agilent 7500, gadolinium concentration). The concentration of compound bound to collagen is determined as [bound]=[total]−[unbound].
(§3) The binding of compounds to human, rat and dog collagen (5 μM) was measured over the concentration range 0.2-5 μM of Comp ID Nos.: 1-4. The binding data was fit to a model of 1 binding site.

[2] = target: T2, human type I collagen (VitroCol solution, Advanced Biomatrix, cat#5007-A) (human, UniProt P02452 179-1192; P08123 91-1104, limits assumed)
T2 construct: In the assay the collagen was gelled and dried as a fibril film in microtiter wells; also called human collagen; Human Collagen Type I
Procedure: as §1, §2, §3

[3] = target: T3, rat collagen (acid soluble, type I, rat tail, Millipore Inc, cat#08-115) (rat, UniProt P02454 152-1207; P02466 86-1125)
T3 construct: In the assay the collagen was gelled and dried as a fibril film in microtiter wells; also called rat collagen type I
Procedure: as §1, §2, §3

T2 sequence (P02452 179-1192 limits assumed, chain 1 of 2): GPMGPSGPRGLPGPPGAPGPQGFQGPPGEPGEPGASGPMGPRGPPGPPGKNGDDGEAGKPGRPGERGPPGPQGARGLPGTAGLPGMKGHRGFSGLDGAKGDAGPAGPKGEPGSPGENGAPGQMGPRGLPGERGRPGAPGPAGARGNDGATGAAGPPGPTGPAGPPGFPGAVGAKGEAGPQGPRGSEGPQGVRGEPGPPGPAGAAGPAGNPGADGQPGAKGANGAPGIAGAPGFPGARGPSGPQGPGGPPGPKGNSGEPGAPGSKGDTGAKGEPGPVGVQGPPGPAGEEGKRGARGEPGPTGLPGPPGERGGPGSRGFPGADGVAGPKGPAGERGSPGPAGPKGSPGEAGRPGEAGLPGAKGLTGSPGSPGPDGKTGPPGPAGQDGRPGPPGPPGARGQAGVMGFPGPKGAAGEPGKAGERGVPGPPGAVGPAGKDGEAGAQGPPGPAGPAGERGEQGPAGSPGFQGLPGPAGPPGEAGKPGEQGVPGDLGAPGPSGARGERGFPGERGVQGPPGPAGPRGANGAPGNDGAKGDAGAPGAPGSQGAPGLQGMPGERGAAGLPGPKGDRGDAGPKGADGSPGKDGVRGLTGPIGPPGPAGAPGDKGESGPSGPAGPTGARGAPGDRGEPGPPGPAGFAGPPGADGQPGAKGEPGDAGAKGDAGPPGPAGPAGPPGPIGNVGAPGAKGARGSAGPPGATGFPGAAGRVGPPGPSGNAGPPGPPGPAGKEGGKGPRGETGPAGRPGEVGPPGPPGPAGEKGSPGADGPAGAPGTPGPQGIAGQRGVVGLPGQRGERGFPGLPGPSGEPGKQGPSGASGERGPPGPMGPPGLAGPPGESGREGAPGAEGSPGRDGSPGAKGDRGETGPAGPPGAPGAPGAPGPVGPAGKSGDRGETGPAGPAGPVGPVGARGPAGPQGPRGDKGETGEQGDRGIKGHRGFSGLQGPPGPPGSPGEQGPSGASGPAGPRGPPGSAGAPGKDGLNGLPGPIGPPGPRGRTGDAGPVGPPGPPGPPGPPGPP
T2 sequence (P08123 91-1104 limits assumed, chain 2 of 2): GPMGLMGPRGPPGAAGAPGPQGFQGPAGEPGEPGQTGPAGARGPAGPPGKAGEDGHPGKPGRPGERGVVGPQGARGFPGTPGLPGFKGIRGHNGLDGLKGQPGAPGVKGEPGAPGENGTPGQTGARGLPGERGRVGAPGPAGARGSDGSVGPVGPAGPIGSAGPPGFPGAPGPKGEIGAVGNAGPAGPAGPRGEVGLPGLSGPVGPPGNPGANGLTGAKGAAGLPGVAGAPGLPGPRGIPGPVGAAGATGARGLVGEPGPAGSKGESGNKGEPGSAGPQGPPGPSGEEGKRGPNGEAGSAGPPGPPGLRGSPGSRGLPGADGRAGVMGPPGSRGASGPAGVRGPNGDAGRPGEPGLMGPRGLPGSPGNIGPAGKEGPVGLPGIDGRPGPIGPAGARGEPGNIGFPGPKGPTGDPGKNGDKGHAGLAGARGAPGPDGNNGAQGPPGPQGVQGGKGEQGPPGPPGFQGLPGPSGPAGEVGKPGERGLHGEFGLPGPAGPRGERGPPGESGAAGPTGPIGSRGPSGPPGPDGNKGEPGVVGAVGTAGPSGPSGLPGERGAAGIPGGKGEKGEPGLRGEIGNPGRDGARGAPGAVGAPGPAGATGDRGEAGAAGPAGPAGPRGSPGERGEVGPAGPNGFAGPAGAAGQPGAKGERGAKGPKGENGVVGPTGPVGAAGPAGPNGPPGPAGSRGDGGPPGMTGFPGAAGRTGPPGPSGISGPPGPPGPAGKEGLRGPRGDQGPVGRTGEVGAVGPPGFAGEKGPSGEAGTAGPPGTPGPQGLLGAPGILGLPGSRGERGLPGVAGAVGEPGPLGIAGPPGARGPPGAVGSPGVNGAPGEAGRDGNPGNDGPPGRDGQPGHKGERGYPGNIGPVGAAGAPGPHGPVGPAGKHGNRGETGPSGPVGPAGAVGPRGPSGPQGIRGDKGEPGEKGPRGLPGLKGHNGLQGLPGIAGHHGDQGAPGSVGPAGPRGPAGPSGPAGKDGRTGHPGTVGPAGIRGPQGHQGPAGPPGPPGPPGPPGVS
T3 sequence (P02454 152-1207 limits assumed, chain 1 of 2): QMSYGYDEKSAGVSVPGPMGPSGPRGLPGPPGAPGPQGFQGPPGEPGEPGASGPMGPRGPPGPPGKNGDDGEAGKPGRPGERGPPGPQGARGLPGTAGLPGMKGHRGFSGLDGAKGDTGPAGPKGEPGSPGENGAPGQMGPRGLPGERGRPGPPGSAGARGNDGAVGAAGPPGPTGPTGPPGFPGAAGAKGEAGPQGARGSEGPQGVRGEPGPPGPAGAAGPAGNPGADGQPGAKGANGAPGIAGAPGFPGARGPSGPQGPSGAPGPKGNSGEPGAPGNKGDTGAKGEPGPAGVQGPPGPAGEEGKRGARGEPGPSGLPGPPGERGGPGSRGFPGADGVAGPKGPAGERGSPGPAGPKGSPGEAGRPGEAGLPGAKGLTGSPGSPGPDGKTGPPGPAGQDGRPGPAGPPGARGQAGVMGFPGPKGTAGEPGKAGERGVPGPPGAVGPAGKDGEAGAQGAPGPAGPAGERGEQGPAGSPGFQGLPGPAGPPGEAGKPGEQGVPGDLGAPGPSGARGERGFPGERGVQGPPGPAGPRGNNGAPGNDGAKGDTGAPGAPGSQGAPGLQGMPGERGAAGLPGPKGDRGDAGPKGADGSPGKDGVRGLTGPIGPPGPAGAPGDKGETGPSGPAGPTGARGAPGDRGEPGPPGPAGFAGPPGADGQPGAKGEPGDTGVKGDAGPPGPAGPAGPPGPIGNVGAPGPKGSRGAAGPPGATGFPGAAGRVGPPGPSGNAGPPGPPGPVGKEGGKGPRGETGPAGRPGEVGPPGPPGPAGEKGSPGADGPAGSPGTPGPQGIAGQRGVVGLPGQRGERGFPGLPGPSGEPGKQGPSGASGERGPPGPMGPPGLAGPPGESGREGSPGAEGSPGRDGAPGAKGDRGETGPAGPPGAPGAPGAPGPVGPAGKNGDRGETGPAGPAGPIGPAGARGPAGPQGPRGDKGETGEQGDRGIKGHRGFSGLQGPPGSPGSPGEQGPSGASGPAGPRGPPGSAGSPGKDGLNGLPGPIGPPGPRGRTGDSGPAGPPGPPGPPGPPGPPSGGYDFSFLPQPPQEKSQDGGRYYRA
T3 sequence (P02466 86-1125 limits assumed, chain 2 of 2): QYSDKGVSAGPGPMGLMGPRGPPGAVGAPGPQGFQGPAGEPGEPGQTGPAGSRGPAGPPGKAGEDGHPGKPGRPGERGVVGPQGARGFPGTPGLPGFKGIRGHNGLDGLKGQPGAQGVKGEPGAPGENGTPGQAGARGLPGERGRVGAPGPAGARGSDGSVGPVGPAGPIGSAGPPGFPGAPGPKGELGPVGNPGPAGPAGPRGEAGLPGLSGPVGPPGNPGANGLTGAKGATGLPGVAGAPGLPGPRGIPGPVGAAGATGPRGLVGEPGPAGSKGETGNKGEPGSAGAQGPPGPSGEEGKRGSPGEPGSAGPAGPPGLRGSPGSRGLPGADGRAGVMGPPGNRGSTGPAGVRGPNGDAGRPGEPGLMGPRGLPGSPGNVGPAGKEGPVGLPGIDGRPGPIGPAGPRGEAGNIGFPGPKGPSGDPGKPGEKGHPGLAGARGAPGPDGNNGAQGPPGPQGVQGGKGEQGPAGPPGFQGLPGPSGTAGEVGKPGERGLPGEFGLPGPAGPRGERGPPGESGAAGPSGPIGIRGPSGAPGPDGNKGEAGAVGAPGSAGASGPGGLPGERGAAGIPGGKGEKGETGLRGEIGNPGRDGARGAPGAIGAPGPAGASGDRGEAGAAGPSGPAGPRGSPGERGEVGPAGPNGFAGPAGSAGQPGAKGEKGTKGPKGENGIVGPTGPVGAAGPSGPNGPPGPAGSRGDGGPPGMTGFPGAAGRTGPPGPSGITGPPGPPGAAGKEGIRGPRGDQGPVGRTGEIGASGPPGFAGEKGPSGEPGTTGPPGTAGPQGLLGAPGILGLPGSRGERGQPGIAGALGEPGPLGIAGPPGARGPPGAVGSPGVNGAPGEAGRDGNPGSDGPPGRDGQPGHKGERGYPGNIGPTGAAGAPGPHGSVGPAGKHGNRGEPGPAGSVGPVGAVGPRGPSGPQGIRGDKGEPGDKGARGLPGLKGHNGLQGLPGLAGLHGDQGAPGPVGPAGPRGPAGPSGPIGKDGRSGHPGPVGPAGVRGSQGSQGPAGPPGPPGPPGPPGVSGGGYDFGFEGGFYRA

B1: Compound ID No. 2 (peptide)
peptide: GdDOTAGA-K(GdDOTAGA)WHCTTK(GdDOTAGA)FPHHYCLY[Bip]-NH2
modifications: disulfide 4-13
notes: Tested as the Gd(III)-DOTAGA chelate conjugate of the cyclic peptide; also called CMPD ID 2
[1]
  Kd: 4.9 µM
[2]
  Kd: 4.9 µM
[3]
  Kd: 20.6 µM

B2: Compound ID No. 1 (peptide)
peptide: GKWHCTTKFPHHYCLY
modifications: Bip (L-4,4'-biphenylalanine) at position 17; C-terminal amide (NH2); cyclized through Cysteine-Cysteine disulfide bond (Cys5-Cys14); GdDOTAGA coupled by amide bonds to the primary amines (N-terminal amine and lysine epsilon amino groups)
notes: Tested as the Gd(III)-DOTAGA chelate conjugate of the cyclic peptide; also called CMPD ID 1; Comp ID No. 1
[1]
  Kd: 4.4 µM
[2]
  Kd: 3.8 µM
[3]
  Kd: 21.1 µM

B3: Compound ID No. 3 (peptide)
peptide: GdDOTAGA-K(GdDOTAGA)YWHCTTK(GdDOTAGA)FPHHYCLY[Bip]-NH2
modifications: disulfide 5-14
notes: Tested as the Gd(III)-DOTAGA chelate conjugate of the cyclic peptide; also called CMPD ID 3
[2]
  Kd: 29.8 µM

B4: Compound ID No. 4 (peptide)
peptide: KWHCYTKFPHHYCVY[Bip]-NH2
modifications: disulfide 4-13; not fully specified (residues 1, 7, N-terminus); printed as K-W-H-C-Y-T-K-F-P-H-H-Y-C-V-Y-Bip; also: GdDOTAGA on N-terminal amine or lysine epsilon amino groups
notes: Tested as the Gd(III)-DOTAGA chelate conjugate of the cyclic peptide; also called CMPD ID 4
[1]
  Kd: 2 µM
[2]
  Kd: 9.6 µM
[3]
  Kd: 4.6 µM
